The target of assay [1] is T1, Human Serum Albumin (human, UniProt P02768 25-609).
T1 construct: immobilised on CM5 chips; also called HSA; human SA
The experiment in a line: SPR (BIAcore). In general terms: Surface plasmon resonance follows binding to a sensor surface in real time, without labels.
Experimental: (§1) Binding to HSA, CSA, MSA and RSA by BIAcore was confirmed using purified protein at 3 concentrations 1 μM, 500 nM and 50 nM.

In assay [2] the target is T2, Cynomolgus monkey Serum Albumin (Cynomolgus monkey, UniProt A2V9Z4 25-608).
T2 construct: also called CSA; cyno SA
The experiment in a line: SPR (BIAcore).
Experimental: as §1

Assay [3] concerns the target T3, Rat Serum Albumin (rat, UniProt P02770 25-608).
T3 construct: also called RSA; rat SA
The experiment in a line: SPR (BIAcore).
Experimental: as §1

Assay [4] concerns the target T4, mouse serum albumin (mouse, UniProt P07724 25-608).
T4 construct: also called MSA; mouse SA
As to the kind of experiment: SPR (BIAcore).
Experimental: as §1

Assay [5] has as its target T2, Cynomolgus monkey Serum Albumin. As to the kind of experiment: SPR (BIAcore), second independent experiment.
The target of assay [6] is T1, Human Serum Albumin. As to the kind of experiment: SPR (BIAcore), second independent experiment.
The target in assay [7] is T3, Rat Serum Albumin. The experiment in a line: SPR (BIAcore), second independent experiment.
Assay [8] has as its target T4, mouse serum albumin. The experiment in a line: SPR (BIAcore), second independent experiment.
Assay [9] has as its target T3, Rat Serum Albumin. The experiment in a line: SPR (BIAcore), DOM1m-21-23 fusion against unfused dAb.
Assay [10] concerns the target T3, Rat Serum Albumin. The experiment in a line: SPR (BIAcore), DOM1m-21-23 fusion; albumin taken as RSA from the sentence before; fused to DOM1m21-23.

Consider seven molecules from patent publication US20110300158A1 (GlaxoSmithKline, published 2011).

Numbering of substitutions follows the chain as printed.

T2 sequence (A2V9Z4 25-608 limits assumed): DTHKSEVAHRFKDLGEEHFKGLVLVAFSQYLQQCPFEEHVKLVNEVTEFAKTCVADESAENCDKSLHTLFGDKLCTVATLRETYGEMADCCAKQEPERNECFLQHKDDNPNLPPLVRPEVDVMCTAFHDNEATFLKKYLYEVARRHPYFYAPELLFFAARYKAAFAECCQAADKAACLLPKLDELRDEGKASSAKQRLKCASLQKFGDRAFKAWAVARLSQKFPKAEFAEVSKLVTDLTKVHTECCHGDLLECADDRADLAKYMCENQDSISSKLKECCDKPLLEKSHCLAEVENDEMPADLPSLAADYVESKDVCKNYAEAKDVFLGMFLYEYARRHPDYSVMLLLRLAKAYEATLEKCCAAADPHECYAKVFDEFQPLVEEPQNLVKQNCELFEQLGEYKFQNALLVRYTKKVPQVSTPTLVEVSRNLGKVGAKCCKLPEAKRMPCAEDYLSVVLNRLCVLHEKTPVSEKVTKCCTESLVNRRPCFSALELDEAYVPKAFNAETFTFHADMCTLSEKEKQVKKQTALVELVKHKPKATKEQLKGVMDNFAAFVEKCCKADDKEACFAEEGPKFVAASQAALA
T3 sequence (P02770 25-608 limits assumed): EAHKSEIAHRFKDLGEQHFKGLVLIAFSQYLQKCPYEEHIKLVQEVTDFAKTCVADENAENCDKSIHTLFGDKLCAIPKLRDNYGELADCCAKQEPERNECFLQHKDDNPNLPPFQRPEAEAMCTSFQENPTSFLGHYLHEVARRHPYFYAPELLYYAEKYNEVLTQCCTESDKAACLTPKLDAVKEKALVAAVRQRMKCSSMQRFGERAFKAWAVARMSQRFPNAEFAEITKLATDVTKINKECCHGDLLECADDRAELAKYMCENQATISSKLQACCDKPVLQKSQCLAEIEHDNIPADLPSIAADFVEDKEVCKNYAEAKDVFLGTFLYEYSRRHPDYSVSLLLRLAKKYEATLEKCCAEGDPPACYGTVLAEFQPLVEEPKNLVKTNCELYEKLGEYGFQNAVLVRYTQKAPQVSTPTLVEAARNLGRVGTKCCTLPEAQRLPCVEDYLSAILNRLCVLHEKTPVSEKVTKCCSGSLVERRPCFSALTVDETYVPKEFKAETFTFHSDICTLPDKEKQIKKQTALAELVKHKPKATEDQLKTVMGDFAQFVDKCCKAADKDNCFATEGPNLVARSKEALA
T4 sequence (P07724 25-608 limits assumed): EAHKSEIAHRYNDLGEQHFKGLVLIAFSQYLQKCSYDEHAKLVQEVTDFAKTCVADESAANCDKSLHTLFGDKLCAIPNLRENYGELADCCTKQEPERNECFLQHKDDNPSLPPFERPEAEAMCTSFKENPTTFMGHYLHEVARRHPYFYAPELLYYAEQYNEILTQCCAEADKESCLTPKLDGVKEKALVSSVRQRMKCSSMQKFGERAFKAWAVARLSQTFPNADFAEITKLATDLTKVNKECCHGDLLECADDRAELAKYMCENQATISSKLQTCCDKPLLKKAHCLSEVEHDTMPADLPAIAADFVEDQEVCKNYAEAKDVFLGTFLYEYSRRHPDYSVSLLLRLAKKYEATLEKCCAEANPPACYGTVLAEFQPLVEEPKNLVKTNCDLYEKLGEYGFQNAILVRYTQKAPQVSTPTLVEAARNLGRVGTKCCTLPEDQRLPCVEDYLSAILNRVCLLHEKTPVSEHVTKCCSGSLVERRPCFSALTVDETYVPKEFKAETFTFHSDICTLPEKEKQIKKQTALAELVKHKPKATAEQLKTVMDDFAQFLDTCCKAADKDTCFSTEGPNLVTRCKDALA

B1: DOM7h-11 (other)
VL: DIQMTQSPSSLSASVGDRVTITCRASRPIGTTLSWYQQKPGKAPKLLIWFGSRLQSGVPSRFSGSGSGTDFTLTISSLQPEDFATYYCAQAGTHPTTFGQGTKVEIKR
notes: Parental Vk dAb; also called DOM7h-12
In the assay with Human Serum Albumin [1], B1 came in with a Kd of 2800 nM, a koff of 0.641 s⁻¹ and a kon of 700000 M⁻¹ s⁻¹.

B2: DOM7h-11-15 (other)
VL: B1 VL with T32M, W49L, F50A, G51F
notes: Vk dAb; pDOM5 myc tag not included; also called DOM7-11-15; DOM7h-12-15
Take B2: the kon in assay [2] stood at 5.8e+06 M⁻¹ s⁻¹.

B3: DOM7h-14-28 (other)
VL: DIQMTQSPSSLSASVGDRVTITCRASQWIGSQLSWYQQKPGKAPKLLIMWRSSLQSGVPSRFSGSGSGTDFTLTISSLQPEDFATYYCAQGAALPKTFGQGTKVEIKR
notes: Vk dAb; tag not included
Consider B3, for which the Kd worked out at 66 nM in assay [2]; 30 nM with Human Serum Albumin [1]; 45 nM with Rat Serum Albumin [3]; 26 nM in the assay with mouse serum albumin [4]; 136 nM in [5]; 8260 nM in the assay with Human Serum Albumin [6]. The values for the Kd with Rat Serum Albumin [7] and with mouse serum albumin [8] were 140 nM and 31 nM, respectively. The koff turned out to be 0.13 s⁻¹ in assay [2]; 0.033 s⁻¹ with Human Serum Albumin [1]; 0.07 s⁻¹ with Rat Serum Albumin [3]; 0.034 s⁻¹ in the assay with mouse serum albumin [4]; 0.134 s⁻¹ in [5]; 0.056 s⁻¹ with Human Serum Albumin [6]. Further, the koff is 0.114 s⁻¹ with Rat Serum Albumin [7] and 0.0715 s⁻¹ with mouse serum albumin [8]. Further, the kon came to 2.5e+06 M⁻¹ s⁻¹ in [2]; 1.24e+06 M⁻¹ s⁻¹ in the assay with Human Serum Albumin [1]; 2.1e+06 M⁻¹ s⁻¹ with Rat Serum Albumin [3]; 1.6e+06 M⁻¹ s⁻¹ with mouse serum albumin [4]; 980000 M⁻¹ s⁻¹ in assay [5]; 6780 M⁻¹ s⁻¹ with Human Serum Albumin [6]. Moreover, the on-rate (kon) worked out at 830000 M⁻¹ s⁻¹ with Rat Serum Albumin [7] and 2.28e+06 M⁻¹ s⁻¹ in the assay with mouse serum albumin [8].

B4: DOM7h-14-36 (other)
VL: B3 VL with A92F, A93K, L94K, K96R
notes: Vk dAb; tag not included
Turning to B4, the Kd stood at 30 nM in the assay with Rat Serum Albumin [3]; 35 nM with mouse serum albumin [4]; 7830 nM in assay [5]; 1260 nM with Human Serum Albumin [6]; 6120 nM with Rat Serum Albumin [7]; 33 nM with mouse serum albumin [8]. Besides, the koff came to 0.029 s⁻¹ with Rat Serum Albumin [3]; 0.023 s⁻¹ with mouse serum albumin [4]; 0.11 s⁻¹ in assay [5]; 0.067 s⁻¹ with Human Serum Albumin [6]; 0.0554 s⁻¹ with Rat Serum Albumin [7]; 0.0706 s⁻¹ with mouse serum albumin [8]. Also, the kon turned out to be 1.55e+06 M⁻¹ s⁻¹ in the assay with Rat Serum Albumin [3]; 870000 M⁻¹ s⁻¹ with mouse serum albumin [4]; 14300 M⁻¹ s⁻¹ in assay [5]; 54000 M⁻¹ s⁻¹ with Human Serum Albumin [6]; 9000 M⁻¹ s⁻¹ with Rat Serum Albumin [7]; 2.11e+06 M⁻¹ s⁻¹ in the assay with mouse serum albumin [8].

B5: DOM7h-11-12/DOM1m-21-23 fusion DMS number 5516 (bispecific antibody)
chain: EVQLLESGGGLVQPGGSLRLSCAASGFTFNRYSMGWLRQAPGKGLEWVSRIDSYGRGTYYEDPVKGRFSISRDNSKNTLYLQMNSLRAEDTAVYYCAKISQFGSNAFDYWGQGTQVTVSSASTSGPSDIQMTQSPSSLSASVGDRVTITCRASRPIGTMLSWYQQKPGKAPKLLILFGSRLQSGVPSRFSGSGSGTDFTLTISSLQPEDFATYYCAQAGTHPTTFGQGTKVEIKRAAAEQKLISEEDLN
notes: also called DMS5516
For the molecule B5, the “fold decrease in affinity compared to the unfused AlbudAb” value with Rat Serum Albumin [9] stood at 2 fold.

B6: DOM7h-11/DOM1m-21-23 fusion DMS number 5515 (bispecific antibody)
chain: B5 chain with M159T, L176W
notes: also called DMS5515; 'the DOM7h-12 clone' when fused
In the assay with Rat Serum Albumin [10], B6 came in with a Kd of 2800 nM.

B7: DOM7h-11-15/DOM1m-21-23 fusion DMS number 5517 (bispecific antibody)
chain: B5 chain with F177A, G178F
notes: also called DMS5517
In the case of B7, the “fold decrease in affinity compared to the unfused AlbudAb” value with Rat Serum Albumin [9] came out at 2 fold.

A word on the Kd: it is the equilibrium constant for the complex coming apart. As usually defined, the koff is the rate constant with which the complex falls apart. Broadly, the kon is a measure of how fast the partners come together.
